Laboratory results from PMC8249414, “Structural basis of ALC1/CHD1L autoinhibition and the mechanism of activation by the nucleosome” (Nature Communications, 2021).

B1: ALC1 R857Q mutant (enzyme)
chain: MERAGATSRGGQAPGFLLRLHTEGRAEAARVQEQDLRQWGLTGIHLRSYQLEGVNWLAQRFHCQNGCILGDEMGLGKTCQTIALFIYLAGRLNDEGPFLILCPLSVLSNWKEEMQRFAPGLSCVTYAGDKEERACLQQDLKQESRFHVLLTTYEICLKDASFLKSFPWSVLVVDEAHRLKNQSSLLHKTLSEFSVVFSLLLTGTPIQNSLQELYSLLSFVEPDLFSKEEVGDFIQRYQDIEKESESASELHKLLQPFLLRRVKAEVATELPKKTEVVIYHGMSALQKKYYKAILMKDLDAFENETAKKVKLQNILSQLRKCVDHPYLFDGVEPEPFEVGDHLTEASGKLHLLDKLLAFLYSGGHRVLLFSQMTQMLDILQDYMDYRGYSYERVDGSVRGEERHLAIKNFGQQPIFVFLLSTRAGGVGMNLTAADTVIFVDSDFNPQNDLQAAARAHRIGQNKSVKVIRLIGRDTVEEIVYRKAASKLQLTNMIIEGGHFTLGAQKPAADADLQLSEILKFGLDKLLASEGSTMDEIDLESILGETKDGQWVSDALPAAEGGSRDQEEGKNHMYLFEGKDYSKEPSKEDRKSFEQLVNLQKTLLEKASQEGRSLRNKGSVLIPGLVEGSTKRKRVLSPEELEDRQKKRQEAAAKRRRLIEEKKRQKEEAEHKKKMAWWESNNYQSFCLPSEESEPEDLENGEESSAELDYQDPDATSLKYVSGDVTHPQAGAEDALIVHCVDDSGHWGRGGLFTALEKRSAEPRKIYELAGKMKDLSLGGVLLFPVDDKESRNKGQDLLALIVAQHRDRSNVLSGIKMAALEEGLKKIFLAAKKKKASVHLPRIGHATKGFNWYGTEQLIRKHLAARGIPTYIYYFPRSKS
notes: ALC1 (CHD1L), human, residues 1-880 with R857Q; the mutant was made by mutagenesis; also called R857Q of ALC1; source: E. coli Rosetta (DE3), purified (Ni-NTA, Source-15S, Superdex-200)
B2: single-chain antibody (scFv) against ALC1 used for crystallization (scFv, V domains shown)
VH: QVQLQQSGPGLVRPSQTLSLTCAISGDSVSDNDAAWNWVRQSPSRGLEWLGRTYYRSKWSNEYAVFVQSRITINPDTSKNQFSLHLNSVTPEDTAVYYCARATRPTGNGLDIWGQGTMVTVSS
VL: SYVLTQPPSVSVAPGQTARITCGGNNIGSKSVHWYQQKPGQAPVLVVYDDSDRPSGIPERFSGSNSGNTAALTISRVEAGDEADYYCQVWDSSSDHVVFGGGTKLTVL
notes: human scFv from a non-immunized yeast-display library; One of seven clones; also called the antibody; source: HEK293F, transfected, secreted, purified (Ni-NTA, Superdex 75)

Tests used:
[1] = target: histone H4 (in the nucleosome) (UniProt P62799 2-103); test: cryo-EM structure; R857Q of ALC1 (30 μM) mixed with 167NCP (6 μM), ADP-BeFx, GraFix; single-binding map 2.8 Å; a class with two copies of ALC1 on the nucleosome 3.3 Å; conditions: both partners purified
[2] = target: T1, human ALC1 (residues 1-880) (human, UniProt Q86WJ1); test: crystal structure; ALC1-scFv complex (mixed 1:1.1, purified on Superdex 200), crystallised in the presence of ADP-Mg; 3.5 Å; conditions: both partners purified
T1 construct: ALC1 (CHD1L), human, residues 1-880 cloned from cDNA; the crystallised construct holds the motor domain, the linker region and the macro domain; also called CHD1L; WT; source: E. coli Rosetta (DE3), purified (Ni-NTA, Source-15S, Superdex-200)

Row | Binder | binding result [1] | binding result [2]
1 | B1 | binds | 
2 | B2 |  | binds
